This note sets out measurements from patent US20200354430A1 (OPKO BIOLOGICS, published 2020).

A word on the Kd: it is a measure of binding affinity in units of concentration. A higher Kd goes with a looser complex.

Data set [1] addresses MOD-5000 (commercial recombinant hFVIIa, NovoSeven) (UniProt P08709).
Data set [2] relates to MOD-5014 (activated CTP-modified human Factor VII, FVIIa-CTP3).
Data set [3] has as its target MOD-5000/TF complex (UniProt P08709).
For data set [4], the target named is MOD-5014/TF complex (UniProt P13726).
Data set [5] concerns the target MOD-5000/TF complex (UniProt P08709). The experiment in a line: cell-based or functional assay.
Data set [6] has as its target MOD-5014/TF complex (UniProt P13726). Nature of the data set: cell-based or functional assay.
Data set [7] concerns the target T1, MOD-5014 (activated CTP-modified human Factor VII, FVIIa-CTP3) (human, UniProt P08709 61-212, O-glycans on the CTP serines, sialylated; N-glycans (positions not given); gamma-carboxyglutamic acid (Gla) residues (highly gamma carboxylated; positions not given)).
T1 construct: also called FVIIa-CTP-CTP-CTP; FVIIa-3*CTP
T1 sequence (light): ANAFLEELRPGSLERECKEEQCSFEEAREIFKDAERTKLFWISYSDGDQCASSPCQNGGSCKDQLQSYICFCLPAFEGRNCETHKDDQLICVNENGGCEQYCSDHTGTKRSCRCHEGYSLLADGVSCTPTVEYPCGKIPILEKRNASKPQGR
T1 sequence (heavy): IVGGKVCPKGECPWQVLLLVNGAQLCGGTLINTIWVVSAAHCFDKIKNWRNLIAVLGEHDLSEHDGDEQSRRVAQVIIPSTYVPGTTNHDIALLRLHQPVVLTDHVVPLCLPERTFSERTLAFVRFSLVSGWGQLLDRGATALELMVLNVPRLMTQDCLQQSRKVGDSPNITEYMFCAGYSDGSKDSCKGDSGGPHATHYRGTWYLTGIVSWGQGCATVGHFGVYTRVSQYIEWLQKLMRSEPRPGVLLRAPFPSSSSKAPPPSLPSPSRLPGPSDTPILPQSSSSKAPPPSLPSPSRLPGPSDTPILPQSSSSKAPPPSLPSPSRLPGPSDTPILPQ
The experiment in a line: titration of FVIIa (0-2 nM) on fixed TF (10 pM), read out as rate of FX activation (Pefachrome FXa). The source says: Cleavage of synthetic substrate is converted to FXa concentration by a standard curve.

Data set [8] concerns the target T2, Tissue factor (TF), P13726.
T2 chain: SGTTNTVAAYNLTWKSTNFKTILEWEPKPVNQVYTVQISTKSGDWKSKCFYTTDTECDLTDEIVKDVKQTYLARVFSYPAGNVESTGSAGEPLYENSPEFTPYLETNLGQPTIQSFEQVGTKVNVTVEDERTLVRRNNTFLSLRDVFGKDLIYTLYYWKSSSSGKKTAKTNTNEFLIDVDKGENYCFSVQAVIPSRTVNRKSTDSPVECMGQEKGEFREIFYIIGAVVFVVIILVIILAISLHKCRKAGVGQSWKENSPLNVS

For Factor X (FX), in data set [1], the Km of FX activation by lipid-bound FVIIa without TF is 0.878 µM and the Vmax of FX activation by lipid-bound FVIIa without TF is 0.253 nM FXa/min. In addition, in data set [2], the Km of FX activation by lipid-bound FVIIa without TF stood at 0.848 µM, the Vmax of FX activation by lipid-bound FVIIa without TF was 0.115 nM FXa/min and the “rate of FX activation on a lipid surface in the absence of TF relative to MOD-5000” value was “The rate of FX activation on a lipid surface in the absence of TF is lower for MOD-5014 (45%) relative to MOD-5000”. Besides, in the data set with MOD-5000/TF complex [3], the Km of FX activation by FVIIa/TF is 0.14 µM and the Vmax of FX activation by FVIIa/TF as a function of FX concentration turned out to be 1.78 nM FXa/min. Further, in the data set with MOD-5014/TF complex [4], the Km of FX activation by FVIIa/TF came to 0.12 µM; the Vmax of FX activation by FVIIa/TF as a function of FX concentration worked out at 1.64 nM FXa/min; the “turnover of FX relative to MOD-5000” value is recorded as “When bound to TF, MOD-5014 had a slightly reduced turnover of FX (92%) relative to MOD-5000”.
In the data set with MOD-5000/TF complex [5], “anti-thrombin (AT) (from UniProt P01008 33-464)” returned a k, rate constant of loss of FVIIa/TF activity with AT and heparin of 0.354 min⁻¹. Also, in the data set with MOD-5014/TF complex [6], the k, rate constant of loss of FVIIa/TF activity with AT and heparin is 0.217 min⁻¹; the rate of inhibition by AT relative to MOD-5000 amounted to 62%.
As to “tissue factor pathway inhibitor (TFPI) (from UniProt P10646 29-304)”, the sensitivity to TFPI inhibition of FXa generation relative to MOD-5000 with MOD-5014/TF complex [6] turned out to be 124%.

B1: Tissue factor (TF) (receptor, UniProt P13726 33-295, looked up)
chain: T2 chain
For the molecule B1, in data set [7], the dissociation constant (Kd) came out at 3 pM.

B2: MOD-5014 (activated CTP-modified human Factor VII, FVIIa-CTP3) (protein)
chain 1: T1 sequence (light)
chain 2: T1 sequence (heavy)
On to B2, for which, in data set [8], the Vmax of FX activation at saturation of TF with FVIIa was determined as 1.3 nM FXa/min and the k2, rate of Pefachrome FVIIa substrate cleavage by the VIIa/TF complex (mol pNA/min/mol VIIa/TF) is 357.
